This is an account of results in article PMC9814790.

Where no end group is shown, it is not given here. Me3 = trimethyl (trimethylated lysine, Kme3)

Common to all, as to test: ITC; H3K4me3 peptide (380 uM) titrated to KDM5A PHD3 fingers (28 uM); for AUX WT-KDM5A 190 uM peptide and 21 uM protein; 20 mM TRIS-HCl pH 7.5, 50 mM NaCl, 1 mM DTT; 19 injections; one set of sites model; 7-9 repeats (AUX WT in replicate)
Background: Isothermal titration calorimetry measures the heat released or taken up as one component is titrated into another.

In experiment [1] the target is KDM5A PHD3 finger with 5,6-difluorotryptophan at Trp18 and Trp28 (Homo sapiens) (UniProt P29375).
For experiment [2], the target named is KDM5A PHD3 finger with 5-fluorotryptophan at Trp18 and Trp28 (Homo sapiens) (UniProt P29375).
The target in experiment [3] is KDM5A PHD3 finger with 6-fluorotryptophan at Trp18 and Trp28 (Homo sapiens) (UniProt P29375).
Experiment [4] concerns the target wild-type KDM5A PHD3 finger expressed in E. coli Rosetta BL21 (DE3)pLysS (Homo sapiens) (UniProt P29375).
Experiment [5] has as its target wild-type KDM5A PHD3 finger expressed in the auxotrophic E. coli Castellani and Chalmers strain (Homo sapiens) (UniProt P29375).

B1: H3K4me3 histone peptide (ARTKme3QTARKS) (peptide)
peptide: ARTK(Me3)QTARKS
Take B1: the Kd (in general, the equilibrium constant for the complex coming apart) in experiment [1] is 70 nM; in experiment [2] it was 49 nM; in experiment [3], 57 nM; in experiment [4], 54 nM; in experiment [5], 48 nM. The dH in experiment [1] was -11.7 kcal/mol; in experiment [2], -10.9 kcal/mol; in experiment [3] it was -12.1 kcal/mol; in experiment [4], -11.6 kcal/mol; in experiment [5], -11.9 kcal/mol.
